Experimental data reported in paper PMC5457915, “Real-time analysis of the binding of fluorescent VEGF165a to VEGFR2 in living cells: Effect of receptor tyrosine kinase inhibitors and fate of internalized agonist-receptor complexes” (Biochemical Pharmacology, 2017).
Where “and” joins values, the source holds several entries; their conditions need not be identical. Identical values can stand only once. Entries after “also recorded” stand apart in the source; their conditions may differ. Blank lines part the entries; values can stand above or below the molecule they belong to.

Columns and labels:
VEGFR2 = VEGFR2 (Homo sapiens, UniProt P35968); experiment: Confocal / structured illumination microscopy of VEGF165a-TMR and VEGFR2 location after RTKI pre-treatment; format: cell-based; set-up: full length VEGFR2, tagged with the bioluminescent protein NanoLuc; IL-6 signal peptide (N); expressed in transfected cells; settings: RTKI 30 min pre-incubation, then 10 nM VEGF165a-TMR 30 min
Sequence of VEGFR2 (P35968 20-1356): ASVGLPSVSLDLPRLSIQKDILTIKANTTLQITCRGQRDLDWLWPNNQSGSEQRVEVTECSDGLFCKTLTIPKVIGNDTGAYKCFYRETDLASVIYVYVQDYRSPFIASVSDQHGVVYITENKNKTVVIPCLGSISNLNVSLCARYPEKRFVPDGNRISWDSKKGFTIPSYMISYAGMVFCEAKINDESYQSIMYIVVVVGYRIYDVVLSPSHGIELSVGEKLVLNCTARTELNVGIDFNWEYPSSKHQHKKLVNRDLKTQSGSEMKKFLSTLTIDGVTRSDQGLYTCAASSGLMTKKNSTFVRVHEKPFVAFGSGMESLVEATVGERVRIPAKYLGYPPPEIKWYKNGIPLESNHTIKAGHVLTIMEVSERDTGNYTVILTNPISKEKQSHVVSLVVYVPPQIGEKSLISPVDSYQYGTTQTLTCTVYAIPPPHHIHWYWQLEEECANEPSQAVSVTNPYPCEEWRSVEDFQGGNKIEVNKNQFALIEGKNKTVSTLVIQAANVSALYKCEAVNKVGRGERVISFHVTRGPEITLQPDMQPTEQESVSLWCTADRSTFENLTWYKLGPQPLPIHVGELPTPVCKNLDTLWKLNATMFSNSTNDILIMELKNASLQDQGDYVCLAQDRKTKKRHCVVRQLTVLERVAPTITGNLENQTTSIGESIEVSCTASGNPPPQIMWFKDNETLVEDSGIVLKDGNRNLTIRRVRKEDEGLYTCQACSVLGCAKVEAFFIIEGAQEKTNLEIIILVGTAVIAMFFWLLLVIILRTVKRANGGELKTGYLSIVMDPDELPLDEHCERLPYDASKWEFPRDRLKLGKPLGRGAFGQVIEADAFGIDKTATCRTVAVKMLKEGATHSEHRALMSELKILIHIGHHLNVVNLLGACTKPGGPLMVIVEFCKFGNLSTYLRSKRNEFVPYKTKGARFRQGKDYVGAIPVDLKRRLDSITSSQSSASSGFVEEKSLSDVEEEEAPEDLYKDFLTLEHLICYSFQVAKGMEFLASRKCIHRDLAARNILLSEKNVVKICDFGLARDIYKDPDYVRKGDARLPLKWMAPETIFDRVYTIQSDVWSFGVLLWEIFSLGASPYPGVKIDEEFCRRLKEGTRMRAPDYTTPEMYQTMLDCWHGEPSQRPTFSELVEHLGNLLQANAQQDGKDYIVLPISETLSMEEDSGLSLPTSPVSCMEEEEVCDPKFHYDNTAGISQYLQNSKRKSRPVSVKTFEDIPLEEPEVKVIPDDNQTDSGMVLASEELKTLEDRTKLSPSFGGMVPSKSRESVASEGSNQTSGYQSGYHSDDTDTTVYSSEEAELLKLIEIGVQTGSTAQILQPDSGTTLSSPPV
Experimental: On the day of the assay, cells were washed three times with HBSS/0.1% protease free BSA (vehicle). Receptor tyrosine kinase inhibitors were added at this point as aliquots to the appropriate wells and cells incubated for 30 min at 37 °C. Cells were then stimulated with 10 nM VEGF165a-TMR for 30 min at 37 °C in the dark.
All cells were then fixed using 3% PFA/PBS (10 min at room temperature), washed with PBS and mounted onto slides using Prolong Gold antifade reagent (P10144; Thermo Fisher Scientific, USA). TetraSpeck™ microspheres (0.1 μm; T7279, Thermo Fisher Scientific, USA) were included in each experiment to allow X/Y/Z channel alignment correction in image processing. […] Images were manually processed with consistent raw scaling between and within experiments.

NLuc-VEGFR2 = target: T1, NLuc-VEGFR2 (Homo sapiens, UniProt P35968); experiment: NanoBRET ligand binding (saturation/competition) in living HEK293T NLuc-VEGFR2 cells; settings: maximal response relative to binding of VEGF165a-TMR alone; RTKI 30 min pre-treatment, 60 min ligand
T1 construct: full length VEGFR2, tagged with the bioluminescent protein NanoLuc; IL-6 signal peptide (N); expressed in transfected cells
T1 sequence (P35968 20-1356): as above
Experimental: On the day of the assay, medium was replaced with 50 μl per well HBSS/0.1% protease free BSA. Where appropriate, RTKIs were added 30 min prior to agonist. For competition experiments, a fixed concentration of fluorescent VEGF165a-TMR was added simultaneously with competing unlabeled VEGF isoforms to triplicate wells for the time specified (10, 30 or 60 min) and plates co-incubated at 37 °C in the dark. For saturation experiments a range of concentrations of VEGF165a-TMR were added in the presence or absence of a competing concentration (30 nM) of unlabeled VEGF165a and incubated for 60 min at 37 °C in the dark. The NanoLuc substrate furimazine (N1130; Promega Corporation, USA) was then added at a final concentration of 10 μM. […] For all experiments, sequential recordings were performed at room temperature using a PHERAstar FS plate reader (BMG Labtech, Germany) using 460 nm (80 nm bandpass; donor NanoLuc emission) and >610 nm longpass filters (acceptor emission). Raw BRET ratios were calculated from the ratio of acceptor to donor emission values. For real-time ligand association kinetics experiments, cells were incubated with vehicle for 30 min at 37 °C. Furimazine (10 μM) was then added and plates equilibrated at 37 °C in the PHERAstar FS plate reader for 5 min.
Equilibrium binding: All data were analysed using Prism 6 (GraphPad; San Diego, CA, USA). NanoBRET competition experiments were fitted as raw BRET ratios using non-linear least squares regression (variable slope) with no constraints used. Saturation curves were fitted simultaneously for total (VEGF165a-TMR alone) and non-specific binding (top concentration of competing VEGF165a alone) using both one and two site fits. Background and non-specific binding parameters were shared across all data sets.
Binding affinities (Ki) of the unlabeled ligands were calculated using the Cheng-Prusoff equation: Ki=IC50/1+[L]/KD where [L] is the concentration of fluorescent ligand used (nM). KD values (nM) were derived from saturation binding curves. […]

[1] = target: NLuc-VEGFR2 (full length human VEGFR2 with NanoLuc on its N-terminus) (human) (UniProt P35968); experiment: FRET or BRET; NanoBRET saturation on living HEK293T NLuc-VEGFR2 cells; VEGF165a-TMR 0.1-3 nM with or without 30 nM unlabeled VEGF165a (non-specific binding), 60 min at 37 °C, HBSS/0.1% BSA; one site fit; apparent
Sequence of NLuc-VEGFR2 (full length human VEGFR2 with NanoLuc on its N-terminus) (human) (P35968 20-1356): as above

[2] = target: NLuc-VEGFR2 (full length human VEGFR2 with NanoLuc on its N-terminus) (human) (UniProt P35968); experiment: FRET or BRET; NanoBRET real-time association kinetics on living HEK293T NLuc-VEGFR2 cells; VEGF165a-TMR 1-20 nM, read every 30 s for 16 min at 37 °C; kobs against concentration, linear only at the three lowest concentrations
[3] = target: VEGF165a-TMR (fluorescent VEGF165a labeled with 6-TMR-PEG-CBT on a single N-terminal cysteine of each protomer) (human); experiment: fluorescence correlation spectroscopy; solution FCS of VEGF165a-TMR (0.25-10 nM) in HBSS with 0.1% protease-free BSA; also without BSA and with 10 mM DTT (30 min at 37 °C); number of fluorescent particles against the concentration calculated for a dimer
[4] = target: NLuc-VEGFR2 (full length human VEGFR2 with NanoLuc on its N-terminus) (human) (UniProt P35968); experiment: FRET or BRET; NanoBRET saturation on living HEK293T NLuc-VEGFR2 cells, 30 min pre-incubation with 1 μM cediranib (Fig. 6b)
[5] = target: VEGF165a-TMR (fluorescent VEGF165a labeled with 6-TMR-PEG-CBT on a single N-terminal cysteine of each protomer) (human); experiment: SDS-PAGE with and without DTT, fluorescence scan; purified VEGF165a-TMR in the presence or absence of 100 mM DTT, scanned on a Typhoon 9400 (Ex 532 nm, Em 580 nm)
[6] = target: NLuc-VEGFR2 (full length human VEGFR2 with NanoLuc on its N-terminus) (human) (UniProt P35968); experiment: FRET or BRET; NanoBRET saturation on living HEK293T NLuc-VEGFR2 cells, without cediranib (Fig. 6b)
[7] = target: NLuc-VEGFR2 (full length human VEGFR2 with NanoLuc on its N-terminus) (human) (UniProt P35968); experiment: FRET or BRET; NanoBRET competition on living HEK293T NLuc-VEGFR2 cells; fixed VEGF165a-TMR (0.1-3 nM) added simultaneously with increasing unlabeled VEGF isoform, 60 min at 37 °C, HBSS/0.1% BSA; IC50 (molar) converted to pKi by Cheng-Prusoff; also linear regression of IC50 against [VEGF165a-TMR]; apparent
[8] = target: NLuc-VEGFR2 (full length human VEGFR2 with NanoLuc on its N-terminus) (human) (UniProt P35968); experiment: FRET or BRET; NanoBRET competition on living HEK293T NLuc-VEGFR2 cells; 1 μM cediranib 30 min at 37 °C, then VEGF165a-TMR (0.5-3 nM) with unlabeled VEGF165a for 60 min at 37 °C
[9] = target: NLuc-VEGFR2 (full length human VEGFR2 with NanoLuc on its N-terminus) (human) (UniProt P35968); experiment: FRET or BRET; NanoBRET competition on living HEK293T NLuc-VEGFR2 cells; vehicle 30 min at 37 °C, then VEGF165a-TMR (0.5-3 nM) with unlabeled VEGF165a for 10 min at 37 °C
[10] = target: NLuc-VEGFR2 (full length human VEGFR2 with NanoLuc on its N-terminus) (human) (UniProt P35968); experiment: FRET or BRET; NanoBRET competition on living HEK293T NLuc-VEGFR2 cells; 1 μM cediranib 30 min at 37 °C, then VEGF165a-TMR (0.5-3 nM) with unlabeled VEGF165a for 30 min at 37 °C
[11] = target: NLuc-VEGFR2 (full length human VEGFR2 with NanoLuc on its N-terminus) (human) (UniProt P35968); experiment: FRET or BRET; NanoBRET competition on living HEK293T NLuc-VEGFR2 cells; vehicle 30 min at 37 °C, then VEGF165a-TMR (0.5-3 nM) with unlabeled VEGF165a for 30 min at 37 °C
[12] = target: NLuc-VEGFR2 (full length human VEGFR2 with NanoLuc on its N-terminus) (human) (UniProt P35968); experiment: FRET or BRET; NanoBRET competition on living HEK293T NLuc-VEGFR2 cells; 1 μM cediranib 30 min at 37 °C, then VEGF165a-TMR (0.5-3 nM) with unlabeled VEGF165a for 10 min at 37 °C
[13] = target: NLuc-VEGFR2 (full length human VEGFR2 with NanoLuc on its N-terminus) (human) (UniProt P35968); experiment: FRET or BRET; NanoBRET competition on living HEK293T NLuc-VEGFR2 cells; vehicle 30 min at 37 °C, then VEGF165a-TMR (0.5-3 nM) with unlabeled VEGF165a for 60 min at 37 °C
[14] = target: T2, NLuc-VEGFR2 (full length human VEGFR2 with NanoLuc on its N-terminus) (human, UniProt P35968-1 20-1356); experiment: FRET or BRET; NanoBRET competition on living HEK293T NLuc-VEGFR2 cells; fixed VEGF165a-TMR (0.1-3 nM) added simultaneously with increasing unlabeled VEGF isoform, 60 min at 37 °C, HBSS/0.1% BSA; IC50 (molar) converted to pKi by Cheng-Prusoff; also linear regression of IC50 against [VEGF165a-TMR]; apparent; settings: one partner purified
T2 construct: VEGFR2, human, subcloned from an Origene plasmid (NM_002253); called full length VEGFR2; Open reading frame: IL-6 signal peptide, NanoLuc, Gly-Ser-Ser-Gly(AIA) linker, VEGFR2 (vector pF-sNnK CMV/neo); also called NanoLuc VEGFR2; NanoLuc-tagged VEGFR2; not shown: NanoLuc, N-terminal, kept
T2 sequence (P35968 20-1356): as above

NanoBRET % Increase in binding of 10 nM VEGF165a-TMR (NLuc-VEGFR2): 139.0 ± 4.4% and 139.0 ± 2.0 (4) %
Molecule: COc1cc2c(Oc3ccc4[nH]c(C)cc4c3F)ncnc2cc1OCCCN1CCCC1 [Cediranib]
effect on VEGFR2 internalization by VEGF165a-TMR / cellular location of VEGF165a-TMR (VEGFR2): prevented; also recorded: largely localised to the cell membrane

Kd [1]: 0.92 nM
Kd [2]: 2.27 nM
koff [2]: 0.00183 s⁻¹
kon [2]: 797000 M⁻¹ s⁻¹
stoichiometry N [3]: 2
Kd [4]: 1.18 nM
stoichiometry N [5]: 2
Kd [6]: 1.14 nM
Kd [7]: 0.85 nM
Molecule: VEGF165a-TMR (fluorescent VEGF165a labeled with 6-TMR-PEG-CBT on a single N-terminal cysteine of each protomer) (ligand)

effect on VEGFR2 internalization by VEGF165a-TMR / cellular location of VEGF165a-TMR (VEGFR2): prevented
NanoBRET % Increase in binding of 10 nM VEGF165a-TMR (NLuc-VEGFR2): 144.8 ± 3.5 (4) %
Molecule: Cc1ccc(Nc2nccc(N(C)c3ccc4c(C)n(C)nc4c3)n2)cc1S(N)(=O)=O [Pazopanib]

effect on VEGFR2 internalization by VEGF165a-TMR / cellular location of VEGF165a-TMR (VEGFR2): prevented
NanoBRET % Increase in binding of 10 nM VEGF165a-TMR (NLuc-VEGFR2): 152.8 ± 7.1 (4) %
Molecule: COc1cc2c(Nc3ccc(Br)cc3F)ncnc2cc1OCC1CCN(C)CC1 [Vandetanib]

pKi [8]: 9.18
pKi [9]: 8.93
pKi [10]: 9.23
pKi [11]: 8.99
pKi [12]: 9.17
pKi [13]: 9.28
Ki [7]: 0.22 nM
pKi [7]: 9.81
Molecule: VEGF165a (recombinant human, R&D Systems) (ligand)

pKi [14]: 9.47
B1: VEGF121a (recombinant human, R&D Systems) (ligand)
chain: APMAEGGGQNHHEVVKFMDVYQRSYCHPIETLVDIFQEYPDEIEYIFKPSCVPLMRCGGCCNDEGLECVPTEESNITMQIMRIKPHQGQHIGEMSFLQHNKCECRPKKDRARQEKCDKPRR

pKi [14]: 8.99
B2: VEGF189a (recombinant human, R&D Systems) (ligand)
chain: APMAEGGGQNHHEVVKFMDVYQRSYCHPIETLVDIFQEYPDEIEYIFKPSCVPLMRCGGCCNDEGLECVPTEESNITMQIMRIKPHQGQHIGEMSFLQHNKCECRPKKDRARQEKKSVRGKGKGQKRKRKKSRYKSWSVPCGPCSERRKHLFVQDPQTCKCSCKNTDSRCKARQLELNERTCRCDKPRR

pKi [14]: 9.41
B3: VEGF165b (recombinant human, R&D Systems) (ligand)
chain: APMAEGGGQNHHEVVKFMDVYQRSYCHPIETLVDIFQEYPDEIEYIFKPSCVPLMRCGGCCNDEGLECVPTEESNITMQIMRIKPHQGQHIGEMSFLQHNKCECRPKKDRARQENPCGPCSERRKHLFVQDPQTCKCSCKNTDSRCKARQLELNERTCRSLTRKD

pKi [14]: 8.74
B4: VEGF145a (recombinant human, R&D Systems) (ligand)
chain: APMAEGGGQNHHEVVKFMDVYQRSYCHPIETLVDIFQEYPDEIEYIFKPSCVPLMRCGGCCNDEGLECVPTEESNITMQIMRIKPHQGQHIGEMSFLQHNKCECRPKKDRARQEKKSVRGKGKGQKRKRKKSRYKSWSVCDKPRR
